Results reported in doi:10.1101/726935.

Target: EBOV VP35 WT oligomerization domain (Zaire ebolavirus, Yambuku-Mayinga) (UniProt Q05127)
Experiment: SEC-MALS

For “EBOV VP35 WT oligomerization domain (from UniProt Q05127 75-185) (domain or fragment)”, the stoichiometry N was 4.
